Data set [1] deals with T1, piglet OBP (Sus scrofa, UniProt P81245).
T1 construct: made in house; host or cells: Pichia pastoris GS115 (pPIC9, alpha-mating factor secretion signal)
T1 sequence (P81245 with tags, fused parts or gaps): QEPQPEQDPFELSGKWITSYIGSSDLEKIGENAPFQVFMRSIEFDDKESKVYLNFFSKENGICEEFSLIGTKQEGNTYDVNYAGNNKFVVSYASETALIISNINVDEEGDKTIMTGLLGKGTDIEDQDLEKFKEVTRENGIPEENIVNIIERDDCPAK
Nature of the data set: Competitive fluorescent binding assay: displacement of 1-AMA from piglet OBP by odorants IPMP and IBMP. More on the design: species or system porcine. As to the method: The interaction of odorants with AMA complex was examined by monitoring the decrease in fluorescence intensity of protein/1-AMA complex upon the addition of competitor compounds.
In competitive binding assays, 1-AMA (10 μM) was equilibrated with protein (2 μM) at pH 7.2 50 mM sodium phosphate buffer and pH 3.0 50 mM citrate phosphate buffer, and titrated with increasing concentrations of odorants (0-100 μM) solubilized in 10% v/v methanol.
The affinity of OBPs for odorants was estimated by plotting the decrease of intensity of 1-AMA fluorescence at the emission maximum, (22). Odorant concentrations causing fluorescence decay to half-maximal intensity (IC50 values) were determined from the plot of (I−Imin)/(I0−Imin) against the competitor concentration; I0 is the maximum of fluorescence intensity of the protein/1-AMA complex; I is the fluorescence intensity after addition of an aliquot of competitor, and Imin the fluorescence intensity at saturating concentration of the competitor.

A short description of data set [2]: Protein-MP binding reaction, complex removed by 10 kDa cut-off PES membrane filtration, free IBMP by HS SPME GC/MS. On the procedure:
(§1) The freeze dried preparations of pIOBP and mMUPII were resuspended in phosphate citrate buffers at pH 3.0, 3.5 or 4.0 or phosphate buffer at pH 7.2, to final concentrations between 40-50 μM. The protein solutions, in a 2 ml volume, were spiked with IBMP or IPMP at 300 ng/l and allowed to incubate in a glass vial for 2 h, at RT on a gel shaker. In binding reactions using bentonite to remove the protein-MP complex, the binding reactions were performed in pH 3.5 and pH 4 using bentonite (3 g/l) to remove the protein and protein-ligand complex. To remove any residual bentonite from the reaction, samples were also filtered through a 0.22 μm Durapore filter unit (Millipore). In another assay using a 10 kDa cutoff filter to remove the protein-MP complex, the binding reactions were performed in buffer at pH 3 and pH 7.2. The reactions were centrifuged through a 10 KDa molecular weight cut-off (10MWCO) Omega filter unit made of polyethersulfone (PALL Life Sciences) to separate the proteins and bound MP from the free MP fraction. The concentration of free (unbound) MP fraction was then determined using HS SPME GC/MS. The limit of quantification for the compound IBMP was determined to be 6 ng/L and for IPMP was 2 ng/L, based on 10 times signal/noise. The limit of detection for MPs in the present system is 1.8 ng/L for IBMP and 0.6 ng/L for IPMP as calculated based on 3 times the signal/noise ratio. The data has been reported to the limit of quantification in the figures.
(§2) For the membrane filtration trials, the starting concentration of MPs in the reaction were tested, the free MPs after the 10MWCO filtration without addition of protein were tested, and the free MPs in solution after the protein binding reaction and filtration were tested.

Data set [3] in a line: Protein-MP binding reaction, complex removed by 10 kDa cut-off PES membrane filtration, free IPMP by HS SPME GC/MS. On the procedure: as §1, §2
A short description of data set [4]: Protein-MP binding reaction, complex removed by bentonite fining and 0.22 μm filtration, free IBMP by GC/MS. The following applies: Chardonnay Juice at pH 3.5. As to the method: as §1, with “The” for “The freeze dried preparations of pIOBP and mMUPII were resuspended in phosphate citrate buffers at pH 3.0, 3.5 or 4.0 or phosphate buffer at pH 7.2, to final concentrations between 40-50 μM. The”, “figures. […]” for “figures.”

The conditions of data set [5]: physiological pH, published values; read-out: apparent Kd for IBMP / MPs, literature; cited from earlier work.
For data set [6] the following is noted: pH of binding: 7.4; cited from earlier work.
Data set [7] is described as follows: Intrinsic fluorescence of human OBPIIaα at pH 7.2 and pH 3.0. The following applies: pH 3.0 vs pH 7.2. Format: physicochemical.
The nature of data set [8]: Binding of human OBPIIaα to fluorescent probes 1,8 ANS and 1-AMA. The following applies: pH 7.2 and 3.0. As to the method: The excitation wavelength of 372 nm was used for ANS and fluorescence emission intensity was monitored at 475 nm. […] The excitation wavelength of 290 nm was used and fluorescence emission intensity was monitored at 490 nm.
Fluorescence ligand binding experiments were performed on a Photon Technology International (London, Canada) Quanta Master Model QM2001 fluorometer at room temperature (19-20° C.), using 1 cm light path quartz cuvettes (Hellma). Slit width of 2 nm was used for excitation and emission for assaying a proteins except ratOBP1F, for which excitation and emission slit width of 6 nm was used.

Where a chain is given by its changes, count along the chain named. Like-named read-outs stand apart in the source and are kept apart here.

Results on four molecules are retold here after patent publication US8859026B2, “Method for reducing methoxypyrazines in grapes and grape products” (Brock University, priority 2009, dated 2014).

As for `COc1nccnc1C(C)C` [IPMP, 2-isopropyl-3-methoxypyrazine], the values for the IC50 in data set [1] (pH 3.0) and in data set [1] (pH 7.2) were 5.98 µM and 32.8 µM, respectively. Further, the Kd in data set [1] (pH 3.0, calculated from IC50, read-out: Kd for piglet OBP) was 2.34 µM; in data set [1] (pH 3, read-out: apparent Kd for pIOBP) it was 2.1 µM; in data set [1] (pH 7.2, calculated from IC50, read-out: Kd for piglet OBP), 4.46 µM; in data set [1] (pH 7.2, read-out: apparent Kd for pIOBP), 4.5 µM. In data set [1] (pH 3.0 vs pH 7.2), the “higher affinity for pIOBP at pH 3.0 compared with pH 7.2” value is “about 2 fold”.

B1: mouse MUPII: mouse major urinary protein isoform II (Genbank AJ309921, Uniprot P11589), recombinant from P. pastoris (protein, UniProt P11589 19-180, looked up)
Major urinary protein 2: EEASSTGRNFNVEKINGEWHTIILASDKREKIEDNGNFRLFLEQIHVLEKSLVLKFHTVRDEECSELSMVADKTEKAGEYSVTYDGFNTFTIPKTDYDNFLMAHLINEKDGETFQLMGLYGREPDLSSDIKERFAKLCEEHGILRENIIDLSNANRCLQARE
modifications: recombinant from Pichia pastoris
Turning to B1, the “IBMP concentration after protein treatment and 10 MWCO filtration” value was 6 ng/L in data set [2] (Chardonnay juice, limit of quantification); 6 ng/L in data set [2] (pH 3.0 buffer, 300 ng/l spike, limit of quantification); 11 ng/L in data set [2] (pH 7.2 buffer, 300 ng/l spike). The entries for the “IPMP concentration after protein treatment and 10 MWCO filtration” value in data set [3] (juice), in data set [3] (pH 3.0 buffer) and in data set [3] (pH 7.2 buffer) were 4 ng/L, 3 ng/L and 3 ng/L, respectively. The “IBMP reduction by protein beyond bentonite and filter” value in data set [4] is “further reduced”. Besides, the Kd in data set [5] is 0.94 µM.

B2: mouse MUPI: mouse major urinary protein I (Uniprot P11588), differs from MUPII by three amino acid residues (protein, UniProt P11588 19-180, looked up)
Major urinary protein 1: B1 Major urinary protein 2 with K50N, K136Q, E140K
With B2, the binding of methoxypyrazines result in data set [6] was “binds both IPMP and IBMP”.

B3: human OBPIIaα: human odorant binding protein IIa alpha (Genbank AJ251021, UniProt Q9NY56), recombinant from P. pastoris (protein, UniProt Q9NY56 16-170, looked up)
Odorant-binding protein 2a: LSFTLEEEDITGTWYVKAMVVDKDFPEDRRPRKVSPVKVTALGGGNLEATFTFMREDRCIQKKILMRKTEEPGKFSAYGGRKLIYLQELPGTDDYVFYCKDQRRGGLRYMGKLVGRNPNTNLEALEEFKKLVQHKGLSEEDIFMPLQTGSCVLEH
modifications: recombinant from Pichia pastoris
With B3, the “protein conformation on acidification (tryptophan emission maximum)” value in data set [7] is recorded as “does not modify protein conformation”. Further, the “binding to fluorescent probes” value in data set [8] is listed as “shows binding”. In addition, the Kd in data set [5] is 0.9 to 1.1 µM.
